B1: AAV2 RGD4C 453 A2 (other)
chain: MAADGYLPDWLEDTLSEGIRQWWKLKPGPPPPKPAERHKDDSRGLVLPGYKYLGPFNGLDKGEPVNEADAAALEHDKAYDRQLDSGDNPYLKYNHADAEFQERLKEDTSFGGNLGRAVFQAKKRVLEPLGLVEEPVKTAPGKKRPVEHSPVEPDSSSGTGKAGQQPARKRLNFGQTGDADSVPDPQPLGQPPAAPSGLGTNTMATGSGAPMADNNEGADGVGNSSGNWHCDSTWMGDRVITTSTRTWALPTYNNHLYKQISSQSGASNDNHYFGYSTPWGYFDFNRFHCHFSPRDWQRLINNNWGFRPKRLNFKLFNIQVKEVTQNDGTTTIANNLTSTVQVFTDSEYQLPYVLGSAHQGCLPPFPADVFMVPQYGYLTLNNGSQAVGRSSFYCLEYFPSQMLRTGNNFTFSYTFEDVPFHSSYAHSQSLDRLMNPLIDQYLYYLSRTNTPSGACDCRGDCFCATTTQSRLQFSQAGASDIRDQSRNWLPGPCYRQQRVSKTSADNNNSEYSWTGATKYHLNGRDSLVNPGPAMASHKDDEEKFFPQSGVLIFGKQGSEKTNVDIEKVMITDEEEIRTTNPVATEQYGSVSTNLQAGNAQAATADVNTQGVLPGMVWQDRDVYLQGPIWAKIPHTDGHFHPSPLMGGFGLKHPPPQILIKNTPVPANPSTTFSAAKFASFITQYSTGQVSVEIEWELQKENSKRWNPEIQYTSNYNKSVNVDFTVDTNGVYSEPRPIGTRYLTRNL
notes: Capsid particle of VP-1, VP-2 and VP-3; substitution positions count on wild-type AAV2 VP-1

How the values were obtained:
[1] = target: AAV-amyloid-453-587 (AAV2; human) (UniProt P03135)
[2] = target: T1, purified αvβ3 integrin (CHEMICON) (UniProt P06756 31-1048; P05106 27-788); assay: A20-capture ELISA, purified αvβ3 integrin 100 ng/well, normalised to A20-biot
T1 construct: also called soluble αvβ3; soluble receptor αvβ3
T1 sequence (P06756 31-1048, chain 1 of 2): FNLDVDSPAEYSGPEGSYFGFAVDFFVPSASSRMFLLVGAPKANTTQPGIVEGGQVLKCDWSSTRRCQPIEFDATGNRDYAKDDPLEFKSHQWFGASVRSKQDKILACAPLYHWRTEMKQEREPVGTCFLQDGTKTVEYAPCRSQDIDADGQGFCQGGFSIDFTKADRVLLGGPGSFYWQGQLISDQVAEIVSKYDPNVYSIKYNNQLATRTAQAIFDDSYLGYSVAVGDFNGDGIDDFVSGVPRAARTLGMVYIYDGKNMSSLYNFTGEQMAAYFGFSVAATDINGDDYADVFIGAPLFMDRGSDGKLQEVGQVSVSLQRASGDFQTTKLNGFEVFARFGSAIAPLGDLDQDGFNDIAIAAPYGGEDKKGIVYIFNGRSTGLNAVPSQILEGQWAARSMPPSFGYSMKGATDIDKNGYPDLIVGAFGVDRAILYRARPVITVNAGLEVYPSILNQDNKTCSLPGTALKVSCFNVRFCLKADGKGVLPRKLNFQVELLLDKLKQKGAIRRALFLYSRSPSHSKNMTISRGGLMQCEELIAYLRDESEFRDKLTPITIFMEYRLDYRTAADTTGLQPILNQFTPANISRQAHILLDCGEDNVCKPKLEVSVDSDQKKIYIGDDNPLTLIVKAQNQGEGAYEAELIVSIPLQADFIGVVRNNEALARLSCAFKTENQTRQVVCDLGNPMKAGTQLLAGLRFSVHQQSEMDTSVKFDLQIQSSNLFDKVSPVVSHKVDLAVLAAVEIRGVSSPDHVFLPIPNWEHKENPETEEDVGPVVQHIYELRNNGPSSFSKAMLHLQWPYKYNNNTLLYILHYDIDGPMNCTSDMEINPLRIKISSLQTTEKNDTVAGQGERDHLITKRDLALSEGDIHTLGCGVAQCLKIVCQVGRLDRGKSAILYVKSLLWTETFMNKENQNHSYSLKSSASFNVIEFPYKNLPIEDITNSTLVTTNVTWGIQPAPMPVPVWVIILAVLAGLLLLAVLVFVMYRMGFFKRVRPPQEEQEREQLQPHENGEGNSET
T1 sequence (P05106 27-788, chain 2 of 2): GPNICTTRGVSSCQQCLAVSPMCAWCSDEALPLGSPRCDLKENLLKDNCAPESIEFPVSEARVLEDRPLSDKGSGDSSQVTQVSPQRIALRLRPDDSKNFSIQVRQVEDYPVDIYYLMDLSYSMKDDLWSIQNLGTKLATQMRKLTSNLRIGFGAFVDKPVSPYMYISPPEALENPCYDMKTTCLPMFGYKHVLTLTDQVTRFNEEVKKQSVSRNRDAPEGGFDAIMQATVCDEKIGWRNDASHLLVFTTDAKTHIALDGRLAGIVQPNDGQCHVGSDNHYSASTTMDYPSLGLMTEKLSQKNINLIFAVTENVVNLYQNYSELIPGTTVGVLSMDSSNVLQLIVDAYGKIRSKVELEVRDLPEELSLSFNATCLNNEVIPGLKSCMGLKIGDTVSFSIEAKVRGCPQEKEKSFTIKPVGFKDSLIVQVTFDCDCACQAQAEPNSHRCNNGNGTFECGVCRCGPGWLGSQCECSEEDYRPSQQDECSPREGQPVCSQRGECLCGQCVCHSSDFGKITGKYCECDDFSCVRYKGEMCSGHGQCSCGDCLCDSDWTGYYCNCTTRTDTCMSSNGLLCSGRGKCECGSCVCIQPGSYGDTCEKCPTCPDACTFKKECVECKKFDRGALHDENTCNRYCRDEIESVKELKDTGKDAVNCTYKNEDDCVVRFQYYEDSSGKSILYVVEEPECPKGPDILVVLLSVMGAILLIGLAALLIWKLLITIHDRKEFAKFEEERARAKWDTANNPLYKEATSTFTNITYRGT

Molecule	fold higher affinity against the I-587-insertion mutant [1] [fold]	fold increase of binding activity against RGD4C 453 [2] [fold]
anti-β-amyloid mAb 6E10 (CHEMICON) (antibody)	2	
B1		~50
